From publication PMC9426445 (mBio, 2022)

Experiments:
[1] = biological target: LI-LASV-pfGP soluble ectodomain monomer (lineage I Lassa virus prefusion glycoprotein) (Lassa virus lineage I, strain Pinneo, stabilised); experiment: BLI; Octet Red384; […] (AHC) capture sensors at 2.5 ug/mL; […]; 1x kinetics buffer (PBS, 0.1% BSA, 0.02% Tween 20); 1:1 fit; […]; settings: both partners purified
[2] = biological target: LIV-GP, soluble lineage IV LASV pfGP monomer (Lassa virus lineage IV, strain Josiah, stabilised); experiment: as above; settings: both partners purified

Binder	Kd [1] [nM]	koff [1] [s⁻¹]	kon [1] [M⁻¹ s⁻¹]	Kd [2] [nM]	koff [2] [s⁻¹]	kon [2] [M⁻¹ s⁻¹]
GPC-B antibody 18.5C (IgG) (antibody, V domains shown, copies: 2 + 2) VH: EVQLVQSGGGLVRPGGSLRLSCAAAGFTFKSYSMNWVRQAPGRGLEWVSSITSGGSKTYYADVVKGRFTVSRDNAKQSLYLQMNSLRAEDTAIYFCARSLHSTSQPSYMDVWGRKITVIVSS VL: DIVLTQSPGTLSLSPGERATLSCRASQSVISYYVAWYQHKGGQAPRLLIYGASSRATGVPDRFSGSGSGTDFTLTISSLEPEDFALYYCQYYGSSPLWAFGQGTKVEIK	2.86	0.00235	819000	0.091	7.8e-05	858000
engineered GPC-B antibody 18.5C-M30 (IgG) (antibody, V domains shown, copies: 2 + 2) VH: EVQLVQSGGGLVRPGGSLRLSCAAAGFTFKSYSMNWVRQAPGRGLEWVSSITSRGGSKTYYADVVKGRFTVSRDNAKQSLYLQMNSLRAEDTAIYFCARSRHSTSQPSYMDVWGRKITVIVSS VL: DIVLTQSPGTLSLSPGERATLSCRASQSVISYYVAWYQHKGGQAPRLLIYGASSRATGVPDRFSGSGSGTDFTLTISSLEPEDFALYYCQYYGSSPLWAFGQGTKVEIK	0.559	0.000423	757000	0.047	3.67e-05	780000
GPC-A antibody 25.10C (IgG) (antibody, V domains shown, copies: 2 + 2) VH: QVQLQESGGGLVKPGGSLRLSCTASGFNFNKYNMNWVRQAPGKGLEWVSSISALSTYIYYADSLKGRFTVSRDNAKNSLFLQMNSLRDDDTAVYYCAREIRRASTWSADLWGRGTLVTVSS VL: DIQMTQSPSSLSASVGDRVIITCRASQSISSSLNWYQQKPGKAPKLLIYAAVNLETGVPSRFSGSGFGTDFTLAISNVQPEDFATYYCQQSDTRTFGRGTKLDVK	3.52	0.000387	110000	< 0.001	< 1e-07	150000
